The results in this text go back to patent US20260009052, “CAS12 PROTEINS AND USES THEREOF” (GUANGZHOU REFORGENE MEDICINE CO., LTD., published 2026).

Substitutions are numbered along the chain they refer to.

In one data set the target is T1, C12-279 G989R (synthetic construct, G989R).
T1 chain: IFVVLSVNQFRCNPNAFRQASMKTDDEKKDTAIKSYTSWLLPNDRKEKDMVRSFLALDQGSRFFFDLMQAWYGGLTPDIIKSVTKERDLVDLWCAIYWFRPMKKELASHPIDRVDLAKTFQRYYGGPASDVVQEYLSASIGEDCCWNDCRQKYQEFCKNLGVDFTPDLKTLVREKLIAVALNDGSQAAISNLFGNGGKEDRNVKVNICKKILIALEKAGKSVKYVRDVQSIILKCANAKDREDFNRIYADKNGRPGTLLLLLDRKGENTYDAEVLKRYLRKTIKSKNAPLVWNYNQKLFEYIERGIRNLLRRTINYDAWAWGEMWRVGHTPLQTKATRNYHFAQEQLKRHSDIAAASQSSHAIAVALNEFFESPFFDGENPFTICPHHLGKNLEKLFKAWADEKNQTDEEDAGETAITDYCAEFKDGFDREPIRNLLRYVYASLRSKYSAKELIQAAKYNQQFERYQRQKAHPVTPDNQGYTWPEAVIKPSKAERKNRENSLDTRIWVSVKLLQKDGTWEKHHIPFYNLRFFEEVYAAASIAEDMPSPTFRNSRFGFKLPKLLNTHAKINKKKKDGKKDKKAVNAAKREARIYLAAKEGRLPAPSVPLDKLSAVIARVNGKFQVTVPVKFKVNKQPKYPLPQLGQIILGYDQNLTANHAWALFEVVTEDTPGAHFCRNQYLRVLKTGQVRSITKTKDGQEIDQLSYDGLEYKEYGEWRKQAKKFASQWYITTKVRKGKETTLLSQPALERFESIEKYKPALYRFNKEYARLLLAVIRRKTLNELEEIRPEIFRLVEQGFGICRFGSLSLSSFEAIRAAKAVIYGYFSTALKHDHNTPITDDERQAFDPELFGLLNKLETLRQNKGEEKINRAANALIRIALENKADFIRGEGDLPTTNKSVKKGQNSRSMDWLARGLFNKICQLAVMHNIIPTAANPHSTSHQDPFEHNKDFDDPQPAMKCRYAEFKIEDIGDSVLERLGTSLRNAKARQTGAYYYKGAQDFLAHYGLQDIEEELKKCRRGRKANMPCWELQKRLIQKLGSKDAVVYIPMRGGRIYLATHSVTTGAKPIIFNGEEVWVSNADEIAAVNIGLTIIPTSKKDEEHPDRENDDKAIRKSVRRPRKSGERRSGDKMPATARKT
Kind of data set: cell_activity; PAM TTG; +/-0.2. The procedure: (§1) Transfection: transfection was performed 12-14 h after plating. 1.5 μL PEI (Yeasen Biotechnology, 40815ES03, Polyethylenimine Linear (PEI) MW25000) and 500 ng mutation clone plasmid were added to 100 μL Opti-MEM per well of the 24-well plate, mixed, and added to the NAAN cell line for cell transfection after placing at room temperature for 20 min. After overnight transfection, a fresh culture medium was replaced, and the culture was continued for 72 h, followed by flow cytometry. Editing efficiencies of different mutant clones were characterized by the proportion of GFP-positive cells.
(§2) Editing efficiency of some selected mutants was tested in Reporter3 cell line using the same manner as described for the NAAN reporter system, except that the cell line was changed from NAAN cell line to Reporter3 cell line.

Another data set addresses T2, C12-279 Mut-02 (synthetic construct, Q186R,D352R).
T2 chain: T1 chain with Q186R, D352R, R989G
Briefly: cell_activity; PAM TTG; +/-0.25. The protocol: as §1, §2

B1: C12-279 Reporter3 sgRNA ; Reporter3 target (ssRNA ; dsDNA)
RNA: GUAAUGCGUCUCCCAUUGACGCCUCACCUCGCGACGCAAUGAUG
DNA 1: CTCACCTCGCGACGCAATGATG
DNA 2: CATCATTGCGTCGCGAGGTGAG
In the case of B1, the results for the binding signal with C12-279 G989R and in the data set with C12-279 Mut-02 were 1.27 fold of C12-279 and 1.39 fold of C12-279, respectively.
